This series deals with Egr-1 (Zif268) zinc-finger protein (UniProt P18146 335-423). The experiment in a line: fluorescence anisotropy. Background: Polarisation of emitted light reports the rotation of a fluorescent probe.

What is called Kd is the equilibrium constant for the complex coming apart. High values mean a looser complex, low ones a tighter complex.

B1: 12-bp competitor duplex (dsDNA)
DNA 1: TATGTAGGCGGT
DNA 2: ACCGCCTACATA
Turning to B1, the dissociation constant (Kd) amounted to 29 nM.
